Experimental data published in PMC6942403, “RNA sequencing reveals an additional Crz1-binding motif in promoters of its target genes in the human fungal pathogen Candida albicans”.

Experiments:
[1] = target: T1, His6-CaCrz1 (Candida albicans, UniProt Q5A4H5 1-731); experiment: EMSA; 1 ug protein; abolished by unlabelled Probe 1; EMSA with DIG-labelled probes and 1 ug His6-Crz1; buffer, salt, pH and temperature not given in the material; settings: protein: recombinant, tags: N-terminal His6 (pET28a(+)), label: DIG
T1 sequence: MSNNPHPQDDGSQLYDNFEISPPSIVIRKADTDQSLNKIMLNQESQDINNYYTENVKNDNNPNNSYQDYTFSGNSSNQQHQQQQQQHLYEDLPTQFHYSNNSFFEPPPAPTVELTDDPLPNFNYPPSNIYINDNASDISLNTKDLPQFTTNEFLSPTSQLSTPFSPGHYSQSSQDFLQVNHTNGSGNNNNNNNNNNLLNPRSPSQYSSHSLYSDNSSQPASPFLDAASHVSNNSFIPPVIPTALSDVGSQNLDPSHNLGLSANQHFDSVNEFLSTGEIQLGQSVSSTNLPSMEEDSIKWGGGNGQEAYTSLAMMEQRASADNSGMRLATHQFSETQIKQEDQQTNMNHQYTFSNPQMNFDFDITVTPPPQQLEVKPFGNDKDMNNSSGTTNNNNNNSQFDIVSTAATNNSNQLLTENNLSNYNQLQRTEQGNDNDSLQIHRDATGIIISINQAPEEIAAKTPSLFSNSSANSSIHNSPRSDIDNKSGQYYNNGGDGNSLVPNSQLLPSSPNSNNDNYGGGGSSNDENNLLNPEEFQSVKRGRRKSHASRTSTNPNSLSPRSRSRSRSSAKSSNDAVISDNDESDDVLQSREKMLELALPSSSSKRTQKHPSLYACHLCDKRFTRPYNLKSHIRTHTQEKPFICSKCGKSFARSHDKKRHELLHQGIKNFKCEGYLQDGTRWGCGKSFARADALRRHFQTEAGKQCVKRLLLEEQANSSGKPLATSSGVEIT

[2] = target: T1, His6-CaCrz1; experiment: EMSA; 1 ug protein; EMSA with DIG-labelled probes and 1 ug His6-Crz1; buffer, salt, pH and temperature not given in the material; settings: protein: recombinant; tags: N-terminal His6 (pET28a(+)); label: DIG; blunt
[3] = target: T1, His6-CaCrz1; experiment: EMSA; 1 ug protein; abolished by unlabelled Probe 2; EMSA with DIG-labelled probes and 1 ug His6-Crz1; buffer, salt, pH and temperature not given in the material; settings: protein: recombinant; tags: N-terminal His6 (pET28a(+)); label: DIG

B1: UTR2 Probe 1 EMSA_UTR2_F/R(H) (dsDNA)
DNA 1: CTTTCATTTCATTTCTTTTCTCAACGCCTCAAAATTTGATTCTTAAAATT
DNA 2: AATTTTAAGAATCAAATTTTGAGGCGTTGAGAAAAGAAATGAAATGAAAG
Q: Does B1 bind [1]?
A: binds

B2: CRZ1 Probe 1 (dsDNA)
DNA 1: TGTGTGTGTGTGTGACAGTCCAGTCCCTCAACTAATTTAAAACAGTTTTT
DNA 2: AAAAACTGTTTTAAATTAGTTGAGGGACTGGACTGTCACACACACACACA
Q: Does B2 bind ([1]; blunt)?
A: binds

B3: CRZ1 Probe 4 (dsDNA)
DNA 1: AACAATTTAATCTGGTCATTTCATTTCCCCTAACAGCATCTTTCCAAGTT
DNA 2: AACTTGGAAAGATGCTGTTAGGGGAAATGAAATGACCAGATTAAATTGTT
Q: Does B3 bind [2]?
A: no binding

B4: CRZ1 Probe 2 (dsDNA)
DNA 1: ATTAGAATAGAATATTATCACAGACCCCCCCAATATCTATTTATCAACCT
DNA 2: AGGTTGATAAATAGATATTGGGGGGGTCTGTGATAATATTCTATTCTAAT
Q: Does B4 bind [2]?
A: no binding

B5: UTR2 Probe 2 EMSA_UTR2_F/R(M) (dsDNA)
DNA 1: GGCTTAAATTCTTGAGTTGTGGGCTTTGAATTTCTTTCATTTCAT
DNA 2: ATGAAATGAAAGAAATTCAAAGCCCACAACTCAAGAATTTAAGCC
Q: Does B5 bind [3]?
A: binds

B6: CRZ1 Probe 3 (dsDNA)
DNA 1: TTTCAACTTCCATCATATTTACCACAATTGGATTAACTTGGTTAT
DNA 2: ATAACCAAGTTAATCCAATTGTGGTAAATATGATGGAAGTTGAAA
Q: Does B6 bind [2]?
A: no binding
